Test results from patent publication US20190324040A1.

Columns and labels:
[1] = target: Zika virus (ZIKV), whole virus particles (Zika virus); experiment: cell-based or functional assay
[2] = target: Zika virus (ZIKV), whole virus particles (Zika virus); experiment: virus capture ELISA

B1: CC4 mAb (P1604) (antibody, V domains shown)
VH: VQLVQESGPGPVKPSETLSLTCTVSGGSISSYYWSWIRQPAGKGLEWIGRIYTSGSTNYNPSLKSRVTMSVDTSKNQFSLKLSSVTAADTAVYYCARESGSLYMDVWGKGTAVTVSS
VL: DVVMTQSPATLSLPPGERATLSCRASQSVSSYLAWYQQKPGQAPRLLIYDASNRATGIPARFSGSGSGTDFTLTISSLEPEDFAVYYCQQRSNWPLTFGGGTKVDIK
- % of Zika virus Neutralized (Vero infectivity assay), antibody at 4 µg/ml [1]: 19.3%
- ZIKV binding Abs 450 nm [2]: 0.87 Abs 450 nm
